Results as given in article PMC4747905.

Columns and labels:
[1] = target: BRCA1 BRCT domains (UniProt P38398); test: small angle X-ray scattering; settings: reference: Ab1p (pS406 only); sites S404
[2] = target: BRCA1 BRCT domains (UniProt P38398); test: native mass spectrometry, 15 µM; settings: reference: Ab1p (pS406 only); sites S404
[3] = target: BRCA1 BRCT domains (UniProt P38398); test: size exclusion chromatography, 1 mg/ml; settings: sites S406
[4] = target: BRCA1 BRCT domains (UniProt P38398); test: size exclusion chromatography, 1:1 versus 2:2 complex; settings: reference: Ab1p (pS406 only); sites S404
[5] = target: BRCT-Ab2p complex (UniProt P38398); test: native MS; peak fractions from gel filtration, 15 μM protein, 300 mM ammonium acetate pH 7.6, nano-electrospray

Substance: Abraxas 399-409 (from UniProt Q6UWZ7) Ab2p (pS404 pS406)
- binding against the reference [1]: stronger
- binding against the reference [2]: stronger
- binding against the reference ([3]; reference: pS404-only peptide): gained
- binding against the reference [4]: stronger

Substance: Abraxas 399-409 (from UniProt Q6UWZ7) pS406 peptide (Ab1p)
- binding against the reference ([3]; reference: unphosphorylated peptide): gained

Substance: BRCT-Ab2p complex (from UniProt P38398 1646-1859)
- stoichiometry N [5]: 2
